Residue numbers refer to the chain shown, from its start.
B1: R-30 (VHH)
VHH: QVQLQESGGGLVQSGGSLRLSCTASGGIIRLNSMGWYRQAPGKQREPVATIVSDVGTNYADSVKGRFTISRDNAKNTIYLQMNSLKFEDTAVYYCVADRAFVLRGEYEYWGQGTQVTVSS
notes: also called 第一株RBD纳米抗体R-30
B2: S1-51 (VHH)
VHH: B1 VHH with T23A, I28V, I29S, P47L, V52I, K75A, I78V
notes: also called 第三株RBD纳米抗体S1-51
B3: S1-28 (VHH)
VHH: B1 VHH with S14P, L85P
notes: also called 第二株RBD纳米抗体S1-28
B4: S1-24 (VHH)
VHH: B1 VHH with T23A, I28V, I29S, P41Q, P47L, S53N, K75A, I78V, Q81L, Y94N
notes: also called 第四株RBD纳米抗体S1-24

Columns and labels:
非典SARS-CoV-1 spike RBD = target: T1, 非典SARS-CoV-1 spike RBD (SARS-CoV-1, UniProt P59594 306-527); assay: ELISA on coated antigen, anti HA HRP
T1 construct: domain: RBD; also called 非典病毒RBD; 非典SARS-CoV-1RBD

野生型SARS-CoV-2 S1抗原 = target: T2, 野生型SARS-CoV-2 S1抗原 (SARS-CoV-2, UniProt P0DTC2 16-685); assay: SPR, Biacore T200, antigen coupled to CM5 chip, nanobody as analyte
T2 construct: domain: S1; also called SARS-CoV-2S1野生型; S1抗原(义翘)

| Binder | EC50 (非典SARS-CoV-1 spike RBD) | Kd (野生型SARS-CoV-2 S1抗原) |
| --- | --- | --- |
| B1 | 14.7 nM | ~0.1 nM |
| B2 | 19.2 nM | ~0.1 nM |
| B3 | 11.4 nM | ~0.1 nM |
| B4 | 49.3 nM | ~0.1 nM |

Source: patent CN117069831A (SHENZHEN BGI LIFE SCIENCE RES INSTITUTE, dated 2023)
